Consider 15 variants from the RNAGym collection of RNA variant scans (doi:10.1093/molbev/msab373).

Sequences and labels used below:
B1: Azoarcus group I ribozyme (parent)
chain: GUGCCUUGCGCCGGGAAACCACGCAAGGGAUGGUGUCAAAUUCGGCGAAACCUAAGCGCCCGCCCGGGCGUAUGGCAACGCCGAGCCAAGCUUCGGCGCCUGCGCCGAUGAAGGUGUAGAGACUAGACGGCACCCACCUAAGGCAAACGCUAUGGUGAAGGCAUAGUCCAGGGAGUGGCGAAAGUCACACAAACCGG

The variants in the data set derive from B1. Kind of data set: reverse-splicing fitness (ratio to wild type); higher = more active; in vitro selection; Mg2+ level not given. The method, boiled down: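 An in vitro group I ribozyme library with randomized positions was T7-transcribed and gel-purified. In triplicate, 10 pmol RNA in EPPS pH 7.5 was reacted with 50 pmoles of a 30-nt RNA substrate for 1 h at 37 °C across several added MgCl2 levels (1–48 mM), then stopped with EDTA. Products were reverse transcribed from a substrate-complementary primer, PCR-amplified and sequenced (HiSeq 4000). Fitness is a variant's read proportion after selection over that before, normalised to wild type.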
As for GUGCCUUGCGCCGGGAAACCACGCAAGGGAUGGUGUCAAAUUCGGCGAAACCUAAGCGCCCGCCCGGGCGUAUGGCAACGCUGAGCCAAGCUUCGGCGCCUGCGCCGAUGCAGGUGUAGCGACUAGACGGCACCCACCUAAGGCGAACGUUAUGGUGAAGGCAUAGUCGAGGGAGAGGCGAAAGUCACACAAACCGG, the reverse-splicing fitness is 0.0115. Take GUGCCUUGCGCCGGGAAACCACGCAAGGGAUGGUGUCAAAUUCGGCGAAACCUAAGCGCCCGCCCGGGCGUAUGGCAACGCUGAGCCAAGCUUCGGCGCCUGCGCCGAUGCAGGUGUAGCGACUAGACGGCACCCACCUAAGGCGAACGUUAUGGUGAAGGCAUAGUCGAGGGAGCGGCGAAAGUCACACAAACCGG: the reverse-splicing fitness amounted to 0.0151. As for GUGCCUUGCGCCGGGAAACCACGCAAGGGAUGGUGUCAAAUUCGGCGAAACCUAAGCGCCCGCCCGGGCGUAUGGCAACGCUGAGCCAAGCUUCGGCGCCUGCGCCGAUGCAGGUGUAGCGACUAGACGGCACCCACCUAAGGCGAACGGUAUGGUGAAGGCAUAGUCAAGGGAGGGGCGAAAGUCACACAAACCGG, the figure is 0.00708. As for GUGCCUUGCGCCGGGAAACCACGCAAGGGAUGGUGUCAAAUUCGGCGAAACCUAAGCGCCCGCCCGGGCGUAUGGCAACGCUGAGCCAAGCUUCGGCGCCUGCGCCGAUGCAGGUGUAGCGACUAGACGGCACCCACCUAAGGCGAACGGUAUGGUGAAGGCAUAGUCGAGGGAGUGGCGAAAGUCACACAAACCGG, the figure is 0.00708. GUGCCUUGCGCCGGGAAACCACGCAAGGGAUGGUGUCAAAUUCGGCGAAACCUAAGCGCCCGCCCGGGCGUAUGGCAACGCUGAGCCAAGCUUCGGCGCCUGCGCCGAUGCAGGUGUAGCGACUAGACGGCACCCACCUAAGGCGAACGGUAUGGUGAAGGCAUAGUCUAGGGAGUGGCGAAAGUCACACAAACCGG: the reverse-splicing fitness stood at 0.00816. For the variant GUGCCUUGCGCCGGGAAACCACGCAAGGGAUGGUGUCAAAUUCGGCGAAACCUAAGCGCCCGCCCGGGCGUAUGGCAACGCUGAGCCAAGCUUCGGCGCCUGCGCCGAUGCAGGUGUAGCGACUAGACGGCACCCACCUAAGGCGAACGUUAUGGUGAAGGCAUAGUCUAGGGAGGGGCGAAAGUCACACAAACCGG, the reverse-splicing fitness was determined as 0.00546. As to GUGCCUUGCGCCGGGAAACCACGCAAGGGAUGGUGUCAAAUUCGGCGAAACCUAAGCGCCCGCCCGGGCGUAUGGCAACGCUGAGCCAAGCUUCGGCGCCUGCGCCGAUGCAGGUGUAGCGACUAGACGGCACCCACCUAAGGCGAACGUUAUGGUGAAGGCAUAGUCUAGGGAGCGGCGAAAGUCACACAAACCGG, the reverse-splicing fitness worked out at 0.0139.

For the variant GUGCCUUGCGCCGGGAAACCACGCAAGGGAUGGUGUCAAAUUCGGCGAAACCUAAGCGCCCGCCCGGGCGUAUGGCAACGCUGAGCCAAGCUUCGGCGCCUGCGCCGAUGCAGGUGUAGCGACUAGACGGCACCCACCUAAGGCGAACGUUAUGGUGAAGGCAUAGUCUAGGGAGAGGCGAAAGUCACACAAACCGG, the reverse-splicing fitness came to 0.0156. In the case of GUGCCUUGCGCCGGGAAACCACGCAAGGGAUGGUGUCAAAUUCGGCGAAACCUAAGCGCCCGCCCGGGCGUAUGGCAACGCUGAGCCAAGCUUCGGCGCCUGCGCCGAUGCAGGUGUAGCGACUAGACGGCACCCACCUAAGGCGAACGUUAUGGUGAAGGCAUAGUCAAGGGAGUGGCGAAAGUCACACAAACCGG, the reverse-splicing fitness stood at 0.00905. Regarding GUGCCUUGCGCCGGGAAACCACGCAAGGGAUGGUGUCAAAUUCGGCGAAACCUAAGCGCCCGCCCGGGCGUAUGGCAACGCUGAGCCAAGCUUCGGCGCCUGCGCCGAUGCAGGUGUAGCGACUAGACGGCACCCACCUAAGGCGAACGUUAUGGUGAAGGCAUAGUCGAGGGAGUGGCGAAAGUCACACAAACCGG, the reverse-splicing fitness stood at 0.00807. Regarding GUGCCUUGCGCCGGGAAACCACGCAAGGGAUGGUGUCAAAUUCGGCGAAACCUAAGCGCCCGCCCGGGCGUAUGGCAACGCUGAGCCAAGCUUCGGCGCCUGCGCCGAUGCAGGUGUAGCGACUAGACGGCACCCACCUAAGGCGAACGUUAUGGUGAAGGCAUAGUCUAGGGAGUGGCGAAAGUCACACAAACCGG, the reverse-splicing fitness is 0.012. For the variant GUGCCUUGCGCCGGGAAACCACGCAAGGGAUGGUGUCAAAUUCGGCGAAACCUAAGCGCCCGCCCGGGCGUAUGGCAACGCUGAGCCAAGCUUCGGCGCCUGCGCCGAUGCAGGUGUAGCGACUAGACGGCACCCACCUAAGGCGAACGUUAUGGUGAAGGCAUAGUCAAGGGAGGGGCGAAAGUCACACAAACCGG, the reverse-splicing fitness amounted to 0.00622. Consider GUGCCUUGCGCCGGGAAACCACGCAAGGGAUGGUGUCAAAUUCGGCGAAACCUAAGCGCCCGCCCGGGCGUAUGGCAACGCUGAGCCAAGCUUCGGCGCCUGCGCCGAUGCAGGUGUAGCGACUAGACGGCACCCACCUAAGGCGAACGUUAUGGUGAAGGCAUAGUCAAGGGAGAGGCGAAAGUCACACAAACCGG, for which the reverse-splicing fitness turned out to be 0.0123. For the variant GUGCCUUGCGCCGGGAAACCACGCAAGGGAUGGUGUCAAAUUCGGCGAAACCUAAGCGCCCGCCCGGGCGUAUGGCAACGCUGAGCCAAGCUUCGGCGCCUGCGCCGAUGCAGGUGUAGCGACUAGACGGCACCCACCUAAGGCGAACGUUAUGGUGAAGGCAUAGUCAAGGGAGCGGCGAAAGUCACACAAACCGG, the reverse-splicing fitness was determined as 0.014. For the variant GUGCCUUGCGCCGGGAAACCACGCAAGGGAUGGUGUCAAAUUCGGCGAAACCUAAGCGCCCGCCCGGGCGUAUGGCAACGCUGAGCCAAGCUUCGGCGCCUGCGCCGAUGCAGGUGUAGCGACUAGACGGCACCCACCUAAGGCGAACGCUAUGGUGAAGGCAUAGUCAAGGGAGUGGCGAAAGUCACACAAACCGG, the reverse-splicing fitness came to 0.0092.
